Assay [1] addresses T1, HA-tagged human ILT7 on CT-550 cells (human, UniProt P59901 24-499). In words: cell-based or functional assay.
Assay [2] concerns the target T2, cynomolgus ILT7 (cynomolgus, UniProt P59901 24-499 (human entry)). In words: cell-based or functional assay.
The target of assay [3] is T1, HA-tagged human ILT7 on CT-550 cells. The experiment in a line: flow cytometry on CT-550 cells. How it is done:
(§1) Binding of anti-ILT7 variants and isotype controls on human and cynomolgus ILT7 was assessed by flow cytometry analysis using CT-550 and cynoILT7 CT-125 cells respectively. CT-125 cells were used as control. Cells were resuspended in Blocking Buffer (PBS supplemented with 10% FBS) at a concentration of 5 million cells per mL and transferred into a round-bottom 96-well plates (BD Falcon™ Clear Microtest Plate, BD Biosciences) at 100 μL per well. Anti-ILT7 variants and control antibodies were added onto the cells for 30 min at 4° C. on a plate shaker. Cells were washed three times with PBS and resuspended in Blocking Buffer (100 μL/well). Human IgG binding on cell surface was detected using a secondary anti-human IgG antibody conjugated to DyLight 649 (1 in 1000 dilution). Cells were incubated in the dark for 30 min at 4° C. on a plate shaker. Cells were washed three times with PBS and surface fluorescence was acquired using LSRII Flow Cytometry System and FACSDiva Software (both from BD Biosciences).
(§2) In order to determine the binding EC50 of ILT70019, ILT70028, ILT70052, ILT70076, ILT70080, ILT70083, ILT70089, ILT70100, ILT70137, ILT70142 and ILT70144 on cells expressing human ILT7, the candidates were screened for binding on CT-550 cells by flow cytometry. ILT70080 (EC₅₀=0.28 nM), ILT70083 (EC₅₀=0.37 nM), ILT70137 (EC₅₀=0.41 nM), ILT70144, ILT70142, ILT70052, and ILT70100 bound to human ILT7-expressing cells. […] The anti-ILT7 antibodies 7C7 (7C7 is described above in Example 1) and SBI33 (SBI33 refers to the anti-ILT7 antibody ILT7#33 provided in U.S. Published Application No. 2009/0280128) were used as positive controls.
On the technique in general: A flow cytometer gives signals particle by particle.

Assay [4] addresses T2, cynomolgus ILT7. The experiment in a line: flow cytometry on CynoILT7 CT-125 cells. The procedure: as §1
In order to determine the binding EC₅₀ of the variants on cells expressing cynomolgus ILT7, the antibodies were screened for binding on CynoILT7 CT-125 cells by flow cytometry. […] The graph in FIG. 3 represents the mean results from two independent experiments, and the table in FIG. 3 show the average EC₅₀.

Assay [5] concerns the target T1, HA-tagged human ILT7 on CT-550 cells. The experiment in a line: flow cytometry on CT-550 cells expressing human ILT7, anti-human IgG DyLight 649 detection; table 'Mean Ec50 (nM)', n = 2. The procedure:
as §1, §2

The target in assay [6] is T3, recombinant human ILT7 protein (human, UniProt P59901 24-446, limits assumed).
T3 construct: Soluble recombinant protein used in ProteOn and BIAcore SPR; also called rILT7; Soluble Recombinant Human ILT7
T3 sequence (P59901 24-446 limits assumed): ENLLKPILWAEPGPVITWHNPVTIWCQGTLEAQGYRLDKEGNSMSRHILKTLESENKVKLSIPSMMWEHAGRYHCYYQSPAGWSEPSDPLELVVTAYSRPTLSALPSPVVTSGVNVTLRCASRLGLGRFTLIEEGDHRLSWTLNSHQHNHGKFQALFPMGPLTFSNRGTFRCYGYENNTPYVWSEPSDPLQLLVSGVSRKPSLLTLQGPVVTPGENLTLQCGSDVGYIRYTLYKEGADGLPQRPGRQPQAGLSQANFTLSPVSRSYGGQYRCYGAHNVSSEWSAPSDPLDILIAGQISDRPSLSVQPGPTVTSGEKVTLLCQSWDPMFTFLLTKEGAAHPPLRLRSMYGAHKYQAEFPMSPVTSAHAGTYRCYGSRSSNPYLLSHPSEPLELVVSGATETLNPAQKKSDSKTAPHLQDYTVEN
In words: SPR on ProteOn.

Assay [7] has as its target T1, HA-tagged human ILT7 on CT-550 cells. The experiment in a line: flow cytometry on human ILT7-expressing cells, left panel 'Human ILT7', table 'Ec50 (nM)'. The procedure: as §1
For assay [8], the target named is T2, cynomolgus ILT7. The experiment in a line: flow cytometry on cynomolgus ILT7-expressing cells, right panel 'Cyno ILT7', table 'Ec50 (nM)'. How it is done: as §1
In assay [9] the target is T1, HA-tagged human ILT7 on CT-550 cells. The experiment in a line: flow cytometry on CT-550 cells (human ILT7), top panel, table 'Ec50 (pM)'. The procedure:
as §1

The target in assay [10] is T2, cynomolgus ILT7. In words: flow cytometry on CynoILT7 CT-125 cells (cynomolgus ILT7), bottom panel, table 'Ec50 (pM)'. The procedure: as §1
The target of assay [11] is T1, HA-tagged human ILT7 on CT-550 cells. In words: flow cytometry (MFI) on human ILT7-expressing cells, left panel 'Human ILT7', table 'Ec50 (pM) Mean ± SD n=3'.
In assay [12] the target is T2, cynomolgus ILT7. In words: flow cytometry (MFI) on cynomolgus ILT7-expressing cells, right panel 'Cynomolgus ILT7', table 'Ec50 (pM) Mean ± SD n=3'.
The target of assay [13] is T1, HA-tagged human ILT7 on CT-550 cells. In words: flow cytometry (MFI) on human ILT7-expressing cells. How it is done: as §1
Anfucosylated version of ILT70080.6 was generated. […] The tables in FIG. 15 provide the mean results of three independent binding experiments measuring mean fluorescence intensity (MFI).

Assay [14] concerns the target T2, cynomolgus ILT7. In words: flow cytometry (MFI) on cynomolgus ILT7-expressing cells. The procedure: as §1
The target of assay [15] is T2, cynomolgus ILT7. In words: flow cytometry on cynomolgus ILT7-expressing cells, bottom panel, table 'Ec50 (pM)'. How it is done:
as §1

Changes are numbered by the printed parent chain. Values joined by “and” are separate entries in the source; they are usually repeats but may differ in a detail not shown here. Equal entries are not always repeated.

T2 sequence (P59901 other isoform, or with tags, fused parts or gaps limits assumed): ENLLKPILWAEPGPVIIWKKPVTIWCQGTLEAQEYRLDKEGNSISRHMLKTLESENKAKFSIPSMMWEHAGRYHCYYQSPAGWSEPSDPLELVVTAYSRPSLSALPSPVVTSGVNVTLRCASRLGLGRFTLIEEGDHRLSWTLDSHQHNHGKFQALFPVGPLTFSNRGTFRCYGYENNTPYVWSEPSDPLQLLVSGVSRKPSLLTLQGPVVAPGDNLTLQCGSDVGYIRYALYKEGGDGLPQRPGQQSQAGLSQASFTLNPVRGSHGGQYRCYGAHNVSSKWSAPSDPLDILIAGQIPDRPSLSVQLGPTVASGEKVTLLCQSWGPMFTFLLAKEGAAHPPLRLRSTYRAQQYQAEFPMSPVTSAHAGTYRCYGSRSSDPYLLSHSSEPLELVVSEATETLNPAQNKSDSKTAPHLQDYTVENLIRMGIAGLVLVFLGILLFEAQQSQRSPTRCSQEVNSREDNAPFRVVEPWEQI
T1 sequence (P59901 24-499): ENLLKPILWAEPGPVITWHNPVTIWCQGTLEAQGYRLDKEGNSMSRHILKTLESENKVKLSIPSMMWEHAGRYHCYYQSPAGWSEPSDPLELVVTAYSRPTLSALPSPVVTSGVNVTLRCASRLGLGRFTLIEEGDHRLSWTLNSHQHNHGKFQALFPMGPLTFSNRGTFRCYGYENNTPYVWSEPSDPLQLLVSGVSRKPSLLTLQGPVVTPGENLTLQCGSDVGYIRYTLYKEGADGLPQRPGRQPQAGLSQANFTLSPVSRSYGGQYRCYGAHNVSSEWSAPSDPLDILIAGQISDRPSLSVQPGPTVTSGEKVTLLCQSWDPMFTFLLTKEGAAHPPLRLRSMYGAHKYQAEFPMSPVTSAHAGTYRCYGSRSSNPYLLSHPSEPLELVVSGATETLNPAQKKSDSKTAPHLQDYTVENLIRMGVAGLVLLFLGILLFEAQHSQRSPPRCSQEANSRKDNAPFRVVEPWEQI

B1: ILT70137 (antibody, V domains shown)
VH: QVQLQQSGAEVKKPGASVKVSCKASGYTFTSYGISWVRQAPGQGLEWMGWISAYNGNTNYAQKLQGRVTMTTDTSTSTAYMELRSLRSDDTAVYYCARNGLWGWDSDAFDIWGRGTLVTVSS
VL: QSALTQPASVSGSPGQSITISCTGTSSDVGGYNYVSWYQQHPGKAPKLMIYDVSNRPSGVSNRFSGSKSGNTASLTISGLQAEDEADYYCSSYTSSSTVVFGGGTKVTVL
For orientation: EC50 means the concentration that produces a half-maximal response. Higher therefore signals a less potent agent. For B1, the “ADCC EC50” value in assay [1] turned out to be 44 pM; with cynomolgus ILT7 [2] it was 15 pM. The EC50 in assay [3] was determined as 410 pM; in the assay with cynomolgus ILT7 [4], 1400 pM.

B2: ILT70144 (antibody, V domains shown)
VH: B1 VH with Q5V, T72R, T76I, R84S, S85R, R114Q, L117T
VL: QSVLTQPPSVSAAPGQKVTISCSGSSSNIGNNYVSWYQQLPGTAPKLLIYDNNKRPSGIPDRFSGSKSGTSATLGITGLQTGDEADYYCGTWDSSLSAGVFGTGTQLTVL
Regarding B2, the half-maximal effective concentration (EC50) with cynomolgus ILT7 [4] stood at 7810 pM; in assay [5], 1700 pM.

B3: ILT70142 (antibody, V domains shown)
VH: B1 VH with Q5V, T72R, T76I, R84S, S85R, R114Q, L117T
VL: B2 VL
Take B3: the “ADCC EC50” value in the assay with cynomolgus ILT7 [2] amounted to 58 pM. The same molecule came in with an EC50 in assay [5] of 2030 pM.

B4: 10D10 (antibody, V domains shown)
VH: EVQLVESGGGVVQPGRSLRLSCAASGFTFSTYPIEWVRQAPGQGLEWIGNFHLYNDDTKYNEKFKGRVTMTTDTSTSTVYMELSSLRSEDTAVYYCTRGDDYGMDYWGQGTLVTVSS
VL: NIQMTQSPSSLSASVGDRVTITCKASQNVRTAVAWYQQKPGKAPKRLIYLASNRHTGVPSRFSGSGSGTDFTLTISSLQSEDFATYYCLQHWNYPFTFGPGTKLEIK
notes: Humanized variant of SBI28 from a framework-shuffled Fab library
Consider B4, for which the “fold lower affinity than SBI28ch” value in [6] turned out to be 3 fold.

B5: ILT70100 (antibody, V domains shown)
VH: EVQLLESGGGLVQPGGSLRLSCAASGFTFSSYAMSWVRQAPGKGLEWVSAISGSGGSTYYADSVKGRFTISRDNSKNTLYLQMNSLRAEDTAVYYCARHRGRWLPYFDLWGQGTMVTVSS
VL: DIQLTQSPSSLSASVGERVTITCQASQDIRSYLNWYQQKPGKAPKLLIYDVSNLETGVPSRFSGSGSGTEYTFSISSLQPEDFATYYCQQYDKAPLTFGGGTKVEIK
As to B5, the “ADCC EC50” value with cynomolgus ILT7 [2] was 188 pM. Also, the concentration for a half-maximal effect (EC50) with cynomolgus ILT7 [4] amounted to 1630 pM; in assay [5] it was 180000 pM.

B6: afucosylated ILT70080 (antibody, V domains shown)
VH: QVQLVQSGAEVKAPGTSVKVSCKASGDSFRNYAVSWVRQAPGQGLEWMGAMMPSFGTREHSQQFNGRVTLSADESTSTAYLELSSLRYDDTAVYYCAGSRDYNAYHFWTGPPDFWGRGTLVTVSS
VL: SYELTQPPSVSVAPGKTAKISCGGDSVGSTSVHWYQQKPGQAPVMVMFYNSDRPSGIPERFSGSISGNTATLTISRVEAGDEADYYCQVWDTSSDHPEFGGGTKLTVL
modifications: afucosylated: lacks the α-1,6 fucose moiety on the N-glycan at Asn-297 of the heavy chain
notes: also called Afucosylated variant ITL70080
Consider B6, for which the “ADCC EC50” value amounted to 1 pM in [1] and 0.51 pM with cynomolgus ILT7 [2]. The half-maximal effective concentration (EC50) in assay [7] turned out to be 340 pM; with cynomolgus ILT7 [8], 400 pM.

B7: ILT70080.6 (antibody, V domains shown)
VH: B6 VH with A13K, T16S, N65Q, S71T, L81M, Y88S, D89E
VL: B6 VL with E3V, K19R, S21T, M45L, M47I, F48Y, I65N
notes: Engineered (germlined) variant of ILT70080, tested as IgG1
In the case of B7, the “ADCC EC50” value in [1] is < 14.1 pM and 6.9 pM. The EC50 in assay [9] is 287 pM; with cynomolgus ILT7 [10], 428 pM; in assay [11], 155 pM; in the assay with cynomolgus ILT7 [12] it was 370 pM.

B8: afucosylated ILT70080.6 (antibody, V domains shown)
VH: B6 VH with A13K, T16S, N65Q, S71T, L81M, Y88S, D89E
VL: B6 VL with E3V, K19R, S21T, M45L, M47I, F48Y, I65N
modifications: afucosylated
notes: also called afucosylated ILT0080.6
As to B8, the figures for the “ADCC EC50” value (in [1]; with cynomolgus ILT7 [2]) were 1.12 pM and 0.44 pM, respectively. The concentration giving a half-maximal response (EC50) is 152 pM in assay [13] and 366 pM with cynomolgus ILT7 [14].

B9: ILT70052 (antibody, V domains shown)
VH: EVQLVESGGGLVKPGGSLRLSCEASGFTFTDYYMNWIRQAPGKGLEWISYISPGGTTVYYADSVKGRFTISRDNAKNSLYLQMNSLRVEDTAVYYCARDISGYGDWFDPWGKGTLVTVSS
VL: QSVVTQPPSASGTPGQRVTISCSGSSSNIGSNTVNWYQLLPATAPRILIYNNNQRPSGVPDRFAGSKSGTSASLAISGLQSEDEADYYCGAWDDSLNSPVFGGGTKLTVL
Turning to B9, the “ADCC EC50” value in the assay with cynomolgus ILT7 [2] turned out to be 73 pM. For the same molecule, the concentration giving a half-maximal response (EC50) with cynomolgus ILT7 [4] came out at 350 pM; in [5] it was 23100 pM.

B10: ILT70083 (antibody, V domains shown)
VH: EVQLLESGGGLVQPGGSLRLSCAASGFTFSSYAMSWVRQAPGKGLEWVSAISGSGGSTYYADSVKGWFTISRDNSKNTLYLQMNSLRAEDTAVYYCARRTYYYDSDGHSDVFDIWGRGTLVTVSS
VL: QSVVTQPPSVSAAPGQKVTISCSGSASNIGSNFVSWYQQLPGRAPKLLIYDNDKRDLGIPDRFSASISSTSAALAITGLQTEDEADYYCGTWDTSLTVGVFGGGTKLTVL
In the case of B10, the “ADCC EC50” value is 89 pM and 94 pM in [1]; 433 pM and 360 pM with cynomolgus ILT7 [2]. For the same molecule, the EC50 in assay [3] was 370 pM and 464 pM; with cynomolgus ILT7 [4], 1370 pM; in the assay with cynomolgus ILT7 [15], 2650 pM; in [7], 250 pM; in assay [11], 308 pM; with cynomolgus ILT7 [12], 1280 pM.

B11: afucosylated ILT70083 (antibody, V domains shown)
VH: B10 VH
VL: B10 VL
modifications: afucosylated: lacks the α-1,6 fucose moiety on the N-glycan at Asn-297 of the heavy chain
Consider B11, for which the “ADCC EC50” value was found to be 10.5 pM in [1] and 57 pM in the assay with cynomolgus ILT7 [2]. Moreover, the EC50 in [7] was 380 pM; in assay [11], 211 pM; with cynomolgus ILT7 [12], 863 pM.
